# Experiment: soluble on expression in E. coli; label from the status in PepcDB or PDB records
row,Sequence,soluble on expression in E. coli
1,MLPKYEQIKQDLLREIKNHTFIPGDKFYSEADIKRKYAVSSITAVKALNELTSAGYLYRIQGKGTFVSKSKVSQNVKFSDIELHSLDSEKVKVLSIEEDNQAEILKELGLPANASYYRIKRVRYSEDTPFLVHITHLPKKLVKEPLSKDLTAYASVYERVRKDFSVDLFSLASVETNEIVFPEDAELLNLLQLSFREPAVKQVKHSYLADGSVAEYIISYKHWKYFKTKIEVEAE,not soluble
2,MGSDKIHHHHHHMSAPRSICLLRLSAIGDTCNAAAVVNAIRQHYPEAEITWVIGKAEAALMAGMDGVNFVVFDKKRGMAAYRNLRRQLQGKRFDALLLMQVALRANLASLCISAKRRIGYDKAKSKELHSLFINERIEPTDKVHVLDNFRQFQKSLGIPLEEPDWNIPVNAEDRGWAKAQLDPNTSKHLIITAAASNTERNWLPDRYAAVADYAASQGFSVYLCGGPADYEKQLAANIQAHAKHSLHNLVGQSSLKQLFALIGEASLVLAPDTGPAHMAVAAGTPVIGLYAHSNPKRTGPYLWQNYVVDAYTPALKQTRGETPEQSRWGQRLKGAELMENITTEQVIDMLDRCIQEQNL,not soluble
3,MECSQEDVVNDFIALEKIGSEVDINLDGVIKSKECSNTNEADIISNLITAIEESLSCTSVCTAVSLETVAQKLDAYADPSLNTQMSFSTASDLSSMEQDYVKASDDPFDLNHQPSPLQVWRDQGKITGFQMMCDDQKVTVVDSLECLAQSEQHLEPVYFDPRVNLAIPCPPDDFEILEDYGSTSNASVNSDDASTAELGPTSEEFEEWVRKIEQNY,not soluble
4,MPRPQGTVAAAAATTSMSSTRARKDPLRRIGNGNAVAGGLDMTRVGILSDRELAFFQRLAYTGSQAAEQQQRDARKQEEDRRRELSKTRTAGWTDTIEARHDQFVQAQQDAKDAAEARQKVLDELYAKQLEEEHKAVIARQALEHLKEDPRGRHLRSMNMLHEALKARKEQVAYKQMLQREDEAQNANAQREFQLQRWGDQAEELHKKLKARQRNVEEKNANLETVLFQIDQRRQERAVQQQDRKHIDQEAAEERAEQQEEAAQRRARELENGAYNKAHSRPALTRSEKLQTRVAENVKDEAALRAEEEKVDSIKRWVMERQQNKLAAFEERKKAGLRRYLDEAKQENLPTYRTQDVFEKGESFLQKLYDGDVKQQEKQHEYRLEMEQQRLEMEEQKAAEARGDVVGSGDGADGSTSRRHAAATTAAGFLNKAEEMAYAEEMRRYPEQLRAKEAEEAAARRAEALRIERIQKLQAAEKRENARRAVEARREEFRQQQSQQEADDARYRAYIDSVVPADMDPILYRKATQLH,soluble
5,HDNYADLSDTELTTLLRRYNIPHGPVVGSTRRLYEKKIFEYETQRRR,soluble
6,DPSVTHVLHQLCDILANNYAFSERIPTLLQHLPNLDYSTVISEEDIAAKLNYELQSLTEDPRLVLKSKTDTLVMPGDSIQAENIPEDEAMLQALVNTVFKVSILPGNIGYLRFDQFADVSVIAKLAPFIVNTVWEPITITENLIIDLRYNVGGSSTAVPLLLSYFLDPETKIHLFTLHNRQQNSTDEVYSHPKVLGKPYGSKKGVYVLTSHQTATAAEEFAYLMQSLSRATIIGEITSGNLMHSKVFPFGDTQLSVTVPIINFIDSNGDYWLGGGVVPDAIVLADEALDKAKEIIAFHPPLA,soluble
7,MRIPFPSIKYPLIAILRGLKPEETEGVVGALIETGFRAIEIPLNSPDPFRSIEIAARMAPADCLIGAGTVLSVEDVASLDAAGGKLMVSPNADAEVITAAREKGMVTMPGVLTPTEALVAAKAGATGLKFFPASIIGPSGINAIRTILPKELIIAAVGGVSDKNFSDYTSAGIRAFGLGTSLYKPGMTAAEVRERATVTLAAYDAAIGG,not soluble
8,MKNIKEKGSQALKITATVFILAVICMSSAASAANLHVDPEAEEGYTTIQAAVDAANAGDTIFVSPGTYVENLKIDKQVRIWSDSRNPENTIVRPSDPAESPVEITGERVTFSGFGVEDSEKAGILLSGATSCFINNNRAQNSKYGILLQDAESNNINGNVITLNEAGLRLESSRSNTIQDNLIAYNYGPGISLEESSRNIFFNNYFKNAENIEENAANADNTWQSTLTVKRNLIRGPYIGGNFWADIEGTGYSETCEDKNSNGICDASYTLNGGGSDNSPLFPKVPSAVTALENKLDAEAYELGMETRGVEVNETENPAGEQTGENGPEGEENKTAETEASENGTPAPGIGFAIMAAGAAYFLKRRKAAALEHHHHHH,not soluble
9,MTNRYVVIFTVGPVQSFIASARKTEDFWSGSYILSHLVREAIKRFYQFDANCEMIYPLVTEKELRSPSQRDVHIASIPNRLTVIMEGTEEEVCGWLREAEQDVCNVFLDFCFQAVRRVFPHLTDHEQELLERMVEQQVRSFLEIYWVAEPYEPSMSFREVRERAERRLGALKNEKHYIPVSQQGLVCSVCKEREALRLEEIGEFDHYGEIKKKTMSLWQRRAVKFQGTGGDEEDDRRAGRIKDNEFLCGICLGKRAARDYFADLFGTSFPSFPSVLDIGQGDYYAVLLMDGDDMGKWFSGERKDEYSRTSQKLARFAKETVPWIVQERCKGKLVYAGGDDVLAFVPVETALKAAEMLRLAFADERQGLGSGATASFGVVIAHKKAPLQHVLNAARALEQKAKRYYNDKTAQRKDALALAVHTRSGEISEAVLPWIVGEKMVSKLLEEWLGLLKTSLSPNFIFHFASAFAPLLHEKDCPKWENRDMLATELRRLLRRSVKEGSCLDAQDIARYTSTLLVLHEAVRSSYDFLHLLKMLTFFKRSKGRG,not soluble
10,MGARGRMAASKGAVMSLLLDAYQKRDKLAMVSFRKNEAFVNLPVTSSIELAARMLKEMPVGGRTPFSAGLLKGYEIAQNYLRKEPGGRPLIILVTDGKANRAIGQGKPLDEVFTISEKISREERIRFLVVDTEEPGLVTFGLAKKIAGLLDAWYYRIDDLRADTLVSIVKTMMP,not soluble
11,SLPMQHVHTSPVRDYRNRCARREGETVFQVVVEETDLRVTALAELATPMAAYVGELRAQLKVWMEFQPAFRHSLVPVEVPEGAPEVVRRMAHGARLVGVGPFAAVAGTIAQMVAERFVDVSPELIVENGGDLYLYSERDRVVGILPDPASGDMVGILVRAGTAPVSLCGSSARIGHSLSLGDGDLAVVRARDASLADAAATAFGNMLRRADDVAAVTERAAQLASIGIEGVYAQCGGRIGIWGDMELAVA,soluble
12,MKHMEKFANHFGYNRMFAKDQLTLGVHIPIENYQFHAPTMEKQVELVQKAEQYGFTGVWLRDVLLQDPDFGDPATGQIYDMMIYLTYLASKTEKIAFGTSATVLSLRHPLRVAKEIATLDQLFPERIMLGVSSGDRRADFKALGVSHETRGEKFREAFAYLEEILYKNFPSIQSTLGEVHGANLVPKPSKRVPTFITGFSQQNMEWFAEHGDGWMYYPRSPVHQAGAIGQWRELVEDYHPDVFKPFIQPMHLDLSEDPNERPTPIRLGYRTGRKALIELLDIYKSIGVNHLFLALFDGQRPADEVLDELGEEVLPHFPAL,soluble
13,MMKKSSDCTEILVGKAASMDGSTIVARNEDGYGPINPIKFVVHPAVDQTGASFTSAVTGVEVPLPDHAYRYTGTPQADQSDGQYEEAGINELNVGMSATETTATNARVLGYDPLVDDGINEEAMITLVLPYIKSAKEGAARLGALIEKYGTGESNSIAFNDQNDVWYLETAGGHHWAAMRLPEDTYAIAPNQTLMQTVDLQDTDNFLVASDLVDFVAQHHLNPTPDTFNFREIFGTHGEDDAYYNTPRTWYGQKLFNPEITDQQPTDQDMPFTRKPAKKLAIEDVQFFLSSHYNGTPYDPFGTYASGSAADQRKYRPIAMDRNQCSSILQIRNDVPADHAAIQWIAMGFFAYAPYVPFFTNITDTPADYQSTTAAVDVANVYWLNKTLSVLIEPHFHDYVEAVNAFRDGCQSYARSRVAATDAAVSGNVSAFLTQSNQITAGEISKRTRELFDTIVKHGLLLSKTAWEKGQNL,not soluble
14,MNYAEICIIKRDGKREDFSISKIKNAVSKAFSATGINDEQQLIADITMNVIGQFASPTITVEEIQDLVEKELMKVRPEVAKKYIIYREWRNTERDKKTQMKHVMDGIVAIDKNDVNLSNANMSSHTPAGQMMTFASEVTKDYTYKYLLPKRFAEAHQLGDIHIHDLDYYPTKTTTCIQYDMDDLFERGFRTKNGSIRTPQSIQSYATLATIIFQTNQNEQHGGQAIPAFDFFMAKGVSKSFRKHLASFISFYVQMNKGEEIEEKAIRTVIAEHLSSIKASELERETLRMALTALQINIDKEHLNQIIEKAFVQTQKDTHQAMEGFIHNLNTMHSRGGNQVVFSSINYGTDTSAEGRMVIEELLKATVEGLGTRGEVPVFPIQIFKIKNGVSYTEADYEKAMANFDAAMEGKLKFEAPNFDLFLKACHTTAKALFPNFMFLDAPFNQNEKWDANDPQRYRYELATMGCRTRVFENVAGEKSSLGRGNLSFTTLNMPRLAIEARIKAENMTEDGHNKDAVERKAKEIFIESIHETATLIAEQLYERYQYQRTALARQFPFMMGNDVWKGGAALNPNEQVGDVLRSGTLGIGFLGGHNAMVALYGEGHGHSQKAWDTLYEAVLEINKVADEYKAKYNLNYSVLATPAEGLSGRFTRMDRRKYGKIKGVTDNDYYVNSFHVDVKEPISIVEKIKREAPFHAITRGGHITYVELDGEAQKNVRAIAKIVKVMFDEGIGYGSINHPVDTCHNCGYKGVIYDKCPVCQSENILRMRRITGYLTGDLSSWNSAKRAEEKDRVKHG,not soluble
15,MPLMRAIGVIRKSRGERWSREEFEELLRSAGYEILAIVEQVREEHPRYNIGPGKLEEVKKLVKELKPDKVIFANRLTPSQAYNLWKELRVDIIDKWQLVLEIFEKRAHSKEAKLQVELANLQYELPLVKEAIRRIKMGDRAGFKGMGEYQVHQYLKHIKYRMGRIKGELEKIRAEREIRRKKREEEGFVLIALAGYTNAGKSTLLNALTGEDIEAKNQMFTTLDTTTRRFKVKGKMLLVTDTVGFIDGLPPFIVEAFHSTLEEIVKADIIILVLDASEPWKEIRRKLFASLNVLRELKALDRPMIVALNKVDLISDEDAKEKELLVRETIDGRANTVGVARISAKLNQLEELYNLIEVALSRLPKFQTFEIRVKDPSKLGKVLSMVHSMGDLLEVEYSEETKIKAYIQTGLIRELTKLGVSLKRISLEHHHHHH,not soluble
16,MTKKVGVGQAHSKIILIGEHAVVYGYPAISLPLLEVEVTCKVVSAESPWRLYEEDTLSMAVYASLEYLDITEACVRCEIDSAIPEKRGMGSSAAISIAAIRAVFDYYQADLPHDVLEILVNRAEMIAHMNPSGLDAKTCLSDQPIRFIKNVGFTELEMDLSAYLVIADTGVYGHTREAIQVVQNKGKDALPFLHALGELTQQAEVAISQKYAEGLGLIFSQAHLHLKEIGVSSPEADFLVETALSYGALGAKMSGGGLGGCIIALVTNLTHAQELAERLEEKGAVQTWIESL,not soluble
17,MKPIDRFSYLKNNRVSQDTSSLVQCYLPIIGQEALSLYLYTISFWDNGRKEYLFSSILNHLNFGMDRLIKSLKILSAFNLLTLYQKGDVYQLALHAPLSSQDFLGHPVYRRLLEKKIGDVAVEDLKVESADGEEIPVSLNQVFPELAELGSQEDLGLKKKVANDFDLEHFRQLMARDGLRFADEQSDVLNLFAIAEEKKWTWFETYQLAKSTAVSQVISTKRMREKIAQKPVSSDFSLKEATIIKEAKSKTALQFLAEIKQTRKGTITQTERELLQQMAGLGLLDEVINIILLLTFNKVDSANINEKYAMKVANDYAYQKIHSAEEAVLRIRDRGQKAKTQKQNQTAPEKTNVPKWSNPEYKNETSEETRLELERKKQELLARLEKGGD,not soluble
18,MSLGFSTYRATNYNEGTAYGNTPVILTLKSTSKSNLKTAVEELQKLNASYSNTTTLAGDDRIQTAIEISKEYYNNDGEKQDHSADVKENVKNVVLVGANALVDGLVAAPLAAEKDAPLLLTSKDKLDSSVKSEIKRVLDLKTSTEVTGKTVYLAGGVNSVSKEVVTELESMGLKVERFSGDDRYETSLKIADEIGLDNDKAYVVGGTGLADAMSIASVASTKLDGNGVVDKTNGHATPIVVVDGKADRISDDLDSFLGSADVDIIGGFASVSEKMEEAISDATGKGVTRVKGDDRQDTNSEVIKTYYANDTEGHHHHHH,soluble
